Measured values published in patent US20240317847A1 (Bayer, published 2024).

What was measured:
[1] = biological target: T1, human IL-11 (Invigate, e.g., lot #C121021-19) (human, UniProt P20809 22-199); assay: SPR, Biacore 8K; antibody captured on anti-human IgG Fc chip, IL-11 analyte 0-50 nM, 1:1 fit
T1 construct: Bought protein; also called hIL-11; hIL11
T1 sequence: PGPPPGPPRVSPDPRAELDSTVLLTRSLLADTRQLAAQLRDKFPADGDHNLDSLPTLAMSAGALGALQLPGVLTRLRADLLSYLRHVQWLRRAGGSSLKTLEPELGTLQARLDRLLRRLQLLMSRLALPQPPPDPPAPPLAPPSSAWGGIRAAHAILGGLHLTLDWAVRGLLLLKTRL
Description: (§1) Antibody binding affinity to hIL-11 (Invigate, Germany, e.g., lot #C121021-19) and mIL-11 (Invigate, Germany, e.g., lot #C210819-09) was detected using Biacore 8K. Each antibody was captured on an anti-human IgG Fc antibody immobilized CM5 sensor chip (GE). hIL-11 and mIL-11 at different concentrations (0, 5, 15.82 and 50 nM) in 1×HBS-EP+ (pH 7.4) (GE healthcare) were injected over the sensor chip at a flow rate of 30 μL/min for an association phase of 120 s, followed by 200 s dissociation phase. The chip was then regenerated by 10 mM Glycine, pH 1.5 after each binding cycle.
(§2) The sensorgrams of blank surface and buffer channel were subtracted from the test sensorgrams. The experimental data was fitted by 1:1 model using Langmiur analysis. Molecular weight of 19.3 kDa was used to calculate the molar concentration of human and mouse IL-11.

[2] = biological target: T2, murine IL-11 (Invigate, e.g., lot #C210819-09) (mouse, UniProt P47873 22-199); assay: as above
T2 construct: Bought protein; biotinylated where captured on streptavidin plates; also called mIL-11; mIL11
T2 sequence: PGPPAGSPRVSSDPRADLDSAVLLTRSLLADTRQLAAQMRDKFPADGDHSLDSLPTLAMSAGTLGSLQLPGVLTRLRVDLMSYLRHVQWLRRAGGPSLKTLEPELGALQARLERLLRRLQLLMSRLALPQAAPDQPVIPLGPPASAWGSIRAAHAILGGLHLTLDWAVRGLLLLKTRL
Description: as §1, §2

human IL-11 = biological target: T3, human IL-11 (human, UniProt P20809 22-199); assay: SPR, antibody captured, IL-11 as analyte
T3 construct: bought from Invigate; also called hIL-11; hIL11
T3 sequence: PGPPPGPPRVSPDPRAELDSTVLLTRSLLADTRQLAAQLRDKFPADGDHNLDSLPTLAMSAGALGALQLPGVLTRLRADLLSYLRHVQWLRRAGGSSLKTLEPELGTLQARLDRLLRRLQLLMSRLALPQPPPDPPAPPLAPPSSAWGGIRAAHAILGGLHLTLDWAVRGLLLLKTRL

murine IL-11 = biological target: T4, murine IL-11 (mouse, UniProt P47873 22-199); assay: SPR, antibody captured, IL-11 as analyte
T4 construct: bought from Invigate; also called mIL-11; mIL11
T4 sequence: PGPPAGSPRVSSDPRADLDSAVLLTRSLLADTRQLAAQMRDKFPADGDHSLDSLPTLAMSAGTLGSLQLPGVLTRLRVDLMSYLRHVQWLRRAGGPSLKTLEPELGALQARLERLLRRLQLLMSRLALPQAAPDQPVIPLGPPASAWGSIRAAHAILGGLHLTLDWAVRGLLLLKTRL

| Binder | Kd [1] | Kd [2] | Kd (human IL-11) | Kd (murine IL-11) |
| --- | --- | --- | --- | --- |
| TPP-31277 (antibody, human IgG4, V domains shown, consecutive numbering; also called VL-N31S) VH: EVQLLESGGGLVQPGGSLRLSCAASGFTFSHYDMNWLRQAPGKGLEWVGVISYDGSNKFYADFVKGRFTISRDNSKNTLYLQMNSLRAEDTAVYYCARTPGSHFDYWGQGTLVTVSS VL: QSVLTQPPSASGTPGQRVTISCSGSSSNIGSNAVNWYQQLPGTAPKLLIYYDDLLPSGVPDRFSGSKSGTSASLAISGLRSEDEADYYCSAWDDSLNGVVFGGGTKLTVL | 0.0094 µM | 0.012 µM | – | – |
| TPP-31278 (antibody, human IgG4, V domains shown, consecutive numbering; also called VL-A33Y) VH: EVQLLESGGGLVQPGGSLRLSCAASGFTFSHYDMNWLRQAPGKGLEWVGVISYDGSNKFYADFVKGRFTISRDNSKNTLYLQMNSLRAEDTAVYYCARTPGSHFDYWGQGTLVTVSS VL: QSVLTQPPSASGTPGQRVTISCSGSSSNIGNNYVNWYQQLPGTAPKLLIYYDDLLPSGVPDRFSGSKSGTSASLAISGLRSEDEADYYCSAWDDSLNGVVFGGGTKLTVL | 0.002 µM | 0.0012 µM | – | – |
| TPP-31281 (antibody, human IgG4, V domains shown, consecutive numbering; also called VL-D52N) VH: EVQLLESGGGLVQPGGSLRLSCAASGFTFSHYDMNWLRQAPGKGLEWVGVISYDGSNKFYADFVKGRFTISRDNSKNTLYLQMNSLRAEDTAVYYCARTPGSHFDYWGQGTLVTVSS VL: QSVLTQPPSASGTPGQRVTISCSGSSSNIGNNAVNWYQQLPGTAPKLLIYYNDLLPSGVPDRFSGSKSGTSASLAISGLRSEDEADYYCSAWDDSLNGVVFGGGTKLTVL | 0.17 µM | 0.13 µM | – | – |
| TPP-31282 (antibody, human IgG4, V domains shown, consecutive numbering; also called VL-D53N) VH: EVQLLESGGGLVQPGGSLRLSCAASGFTFSHYDMNWLRQAPGKGLEWVGVISYDGSNKFYADFVKGRFTISRDNSKNTLYLQMNSLRAEDTAVYYCARTPGSHFDYWGQGTLVTVSS VL: QSVLTQPPSASGTPGQRVTISCSGSSSNIGNNAVNWYQQLPGTAPKLLIYYDNLLPSGVPDRFSGSKSGTSASLAISGLRSEDEADYYCSAWDDSLNGVVFGGGTKLTVL | 0.013 µM | 0.019 µM | – | – |
| TPP-31283 (antibody, human IgG4, V domains shown, consecutive numbering; also called VL-L54Q) VH: EVQLLESGGGLVQPGGSLRLSCAASGFTFSHYDMNWLRQAPGKGLEWVGVISYDGSNKFYADFVKGRFTISRDNSKNTLYLQMNSLRAEDTAVYYCARTPGSHFDYWGQGTLVTVSS VL: QSVLTQPPSASGTPGQRVTISCSGSSSNIGNNAVNWYQQLPGTAPKLLIYYDDQLPSGVPDRFSGSKSGTSASLAISGLRSEDEADYYCSAWDDSLNGVVFGGGTKLTVL | 0.048 µM | 0.041 µM | – | – |
| TPP-31284 (antibody, human IgG4, V domains shown, consecutive numbering; also called VL-L55R) VH: EVQLLESGGGLVQPGGSLRLSCAASGFTFSHYDMNWLRQAPGKGLEWVGVISYDGSNKFYADFVKGRFTISRDNSKNTLYLQMNSLRAEDTAVYYCARTPGSHFDYWGQGTLVTVSS VL: QSVLTQPPSASGTPGQRVTISCSGSSSNIGNNAVNWYQQLPGTAPKLLIYYDDLRPSGVPDRFSGSKSGTSASLAISGLRSEDEADYYCSAWDDSLNGVVFGGGTKLTVL | 0.011 µM | 0.015 µM | – | – |
| TPP-31285 (antibody, human IgG4, V domains shown, consecutive numbering; also called VL-S90A) VH: EVQLLESGGGLVQPGGSLRLSCAASGFTFSHYDMNWLRQAPGKGLEWVGVISYDGSNKFYADFVKGRFTISRDNSKNTLYLQMNSLRAEDTAVYYCARTPGSHFDYWGQGTLVTVSS VL: QSVLTQPPSASGTPGQRVTISCSGSSSNIGNNAVNWYQQLPGTAPKLLIYYDDLLPSGVPDRFSGSKSGTSASLAISGLRSEDEADYYCAAWDDSLNGVVFGGGTKLTVL | 0.0076 µM | 0.018 µM | – | – |
| TPP-31286 (antibody, human IgG4, V domains shown, consecutive numbering; also called VH-E1Q) VH: QVQLLESGGGLVQPGGSLRLSCAASGFTFSHYDMNWLRQAPGKGLEWVGVISYDGSNKFYADFVKGRFTISRDNSKNTLYLQMNSLRAEDTAVYYCARTPGSHFDYWGQGTLVTVSS VL: QSVLTQPPSASGTPGQRVTISCSGSSSNIGNNAVNWYQQLPGTAPKLLIYYDDLLPSGVPDRFSGSKSGTSASLAISGLRSEDEADYYCSAWDDSLNGVVFGGGTKLTVL | 0.0091 µM | 0.012 µM | – | – |
| TPP-31287 (antibody, human IgG4, V domains shown, consecutive numbering; also called VH-L5V) VH: EVQLVESGGGLVQPGGSLRLSCAASGFTFSHYDMNWLRQAPGKGLEWVGVISYDGSNKFYADFVKGRFTISRDNSKNTLYLQMNSLRAEDTAVYYCARTPGSHFDYWGQGTLVTVSS VL: QSVLTQPPSASGTPGQRVTISCSGSSSNIGNNAVNWYQQLPGTAPKLLIYYDDLLPSGVPDRFSGSKSGTSASLAISGLRSEDEADYYCSAWDDSLNGVVFGGGTKLTVL | 0.0093 µM | 0.013 µM | – | – |
| TPP-31288 (antibody, human IgG4, V domains shown, consecutive numbering; also called VH-L11V) VH: EVQLLESGGGVVQPGGSLRLSCAASGFTFSHYDMNWLRQAPGKGLEWVGVISYDGSNKFYADFVKGRFTISRDNSKNTLYLQMNSLRAEDTAVYYCARTPGSHFDYWGQGTLVTVSS VL: QSVLTQPPSASGTPGQRVTISCSGSSSNIGNNAVNWYQQLPGTAPKLLIYYDDLLPSGVPDRFSGSKSGTSASLAISGLRSEDEADYYCSAWDDSLNGVVFGGGTKLTVL | 0.011 µM | 0.015 µM | – | – |
| TPP-31289 (antibody, human IgG4, V domains shown, consecutive numbering; also called VH-G16R) VH: EVQLLESGGGLVQPGRSLRLSCAASGFTFSHYDMNWLRQAPGKGLEWVGVISYDGSNKFYADFVKGRFTISRDNSKNTLYLQMNSLRAEDTAVYYCARTPGSHFDYWGQGTLVTVSS VL: QSVLTQPPSASGTPGQRVTISCSGSSSNIGNNAVNWYQQLPGTAPKLLIYYDDLLPSGVPDRFSGSKSGTSASLAISGLRSEDEADYYCSAWDDSLNGVVFGGGTKLTVL | 0.0096 µM | 0.014 µM | – | – |
| TPP-31290 (antibody, human IgG4, V domains shown, consecutive numbering; also called VH-H31S) VH: EVQLLESGGGLVQPGGSLRLSCAASGFTFSSYDMNWLRQAPGKGLEWVGVISYDGSNKFYADFVKGRFTISRDNSKNTLYLQMNSLRAEDTAVYYCARTPGSHFDYWGQGTLVTVSS VL: QSVLTQPPSASGTPGQRVTISCSGSSSNIGNNAVNWYQQLPGTAPKLLIYYDDLLPSGVPDRFSGSKSGTSASLAISGLRSEDEADYYCSAWDDSLNGVVFGGGTKLTVL | 0.29 µM | 0.3 µM | – | – |
| TPP-31292 (antibody, human IgG4, V domains shown, consecutive numbering; also called VH-N35H) VH: EVQLLESGGGLVQPGGSLRLSCAASGFTFSHYDMHWLRQAPGKGLEWVGVISYDGSNKFYADFVKGRFTISRDNSKNTLYLQMNSLRAEDTAVYYCARTPGSHFDYWGQGTLVTVSS VL: QSVLTQPPSASGTPGQRVTISCSGSSSNIGNNAVNWYQQLPGTAPKLLIYYDDLLPSGVPDRFSGSKSGTSASLAISGLRSEDEADYYCSAWDDSLNGVVFGGGTKLTVL | 0.011 µM | 0.019 µM | – | – |
| TPP-31293 (antibody, human IgG4, V domains shown, consecutive numbering; also called VH-L37V) VH: EVQLLESGGGLVQPGGSLRLSCAASGFTFSHYDMNWVRQAPGKGLEWVGVISYDGSNKFYADFVKGRFTISRDNSKNTLYLQMNSLRAEDTAVYYCARTPGSHFDYWGQGTLVTVSS VL: QSVLTQPPSASGTPGQRVTISCSGSSSNIGNNAVNWYQQLPGTAPKLLIYYDDLLPSGVPDRFSGSKSGTSASLAISGLRSEDEADYYCSAWDDSLNGVVFGGGTKLTVL | 0.0048 µM | 0.012 µM | – | – |
| TPP-31294 (antibody, human IgG4, V domains shown, consecutive numbering; also called VH-G49A) VH: EVQLLESGGGLVQPGGSLRLSCAASGFTFSHYDMNWLRQAPGKGLEWVAVISYDGSNKFYADFVKGRFTISRDNSKNTLYLQMNSLRAEDTAVYYCARTPGSHFDYWGQGTLVTVSS VL: QSVLTQPPSASGTPGQRVTISCSGSSSNIGNNAVNWYQQLPGTAPKLLIYYDDLLPSGVPDRFSGSKSGTSASLAISGLRSEDEADYYCSAWDDSLNGVVFGGGTKLTVL | 0.011 µM | 0.017 µM | – | – |
| TPP-18068 (antibody, mouse IgG1, mIgG1, Lambda; also called WT; parent clone) heavy: EVQLLESGGGLVQPGGSLRLSCAASGFTFSSYGMHWVRQAPGKGLEWVSVISYDGSYKYYADSVKGRFTISRDNSKNTLYLQMNSLRAEDTAVYYCAAGVPDYWGQGTLVTVSSAKTTPPSVYPLAPGSAAQTNSMVTLGCLVKGYFPEPVTVTWNSGSLSSGVHTFPAVLQSDLYTLSSSVTVPSSTWPSETVTCNVAHPASSTKVDKKIVPRDCGCKPCICTVPEVSSVFIFPPKPKDVLTITLTPKVTCVVVDISKDDPEVQFSWFVDDVEVHTAQTQPREEQFNSTFRSVSELPIMHQDWLNGKEFKCRVNSAAFPAPIEKTISKTKGRPKAPQVYTIPPPKEQMAKDKVSLTCMITDFFPEDITVEWQWNGQPAENYKNTQPIMDTDGSYFVYSKLNVQKSNWEAGNTFTCSVLHEGLHNHHTEKSLSHSPGK light: QSVLTQPPSASGTPGQRVTISCTGSSSNIGAGYDVHWYQQLPGTAPKLLIYSNNERPSGVPDRFSGSKSGTSASLAISGLRSEDEADYYCAAWDDSLNGPVFGGGTKLTVLGQPKSSPSVTLFPPSSEELETNKATLVCTITDFYPGVVTVDWKVDGTPVTQGMETTQPSKQSNNKYMASSYLTLTARAWERHSSYSCQVTHEGHTVEKSLSRADCS | – | – | 0.012 µM | 0.00086 µM |
